Measurements taken from the domain aggregation screens of Martell et al. (2025).

Experiment: soluble fraction after stress (log2 fold change); higher = more stays soluble; pooled small domains, quantitative proteomics
Details: stress: 75 degC
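Note: 20 min heating vs room temperature control held 20 min.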

Row | Sequence | soluble fraction (log2)
1 | HMSTDDILSSITALRLASVQFQLGQFDPALDSLKLVKEQAWSGAKNILAGDIQLAKGDKEAAKASYQQAQQ | -0.422
2 | HMTLSAPMPGTVLKIHVKEGQRVRKGQTLVVLEAMKMEHRIQAPKAGEVTNLHFSEGDRVDMGEILVEIG | -2.34
3 | HMNTDEYEQKRGEILDAAQRLIYTKGYERMSIQDILDELKISKGAFYHYFDSKQSLLEALTARMMTE | -0.44
4 | HMGRTKEEIFNILKERIVTLQYEPGKILNEIELSEEFEVSRTPIRTVFQQLEAVKLVSIVPRYGVQVA | -1.15
5 | HMANNPISMIKIRQILRLHIQGRSKLQIAAQTGISRNTLKKYLKEFEASKLTYDEISELSDKDLEDLFIK | -2.86
6 | HMPTLTPFDVARIENAINPRLNLETAAKLKPWIAAGYTAQETADGTGFSPDTVKKYAAIFRK | -0.0357
7 | HMTMVLPDAARDKLKAIGLSIEHVEPSPVKDIFTVISREGVSYVSKDGDYIFTGSLFHVKGKDVVNTTEQA | 0.0464
8 | HMPPHGHIVELLPEQDFGRIETGDGRLVYFHRNSVLDGDFAQLAVGDAVRFAEEMGERGPQASSVHVE | 0.0508
9 | HMSEYNPGIYRVTDPALNIRTGPGVEYPVVGVIKDQGSYTITEIRNKSWGRLLSGAGSTAIKHIVFT | 0.214
10 | HMGQVSDENQLNKVIDEVIKNYPIQVEQFKAGKEPILQFLKGMVMKATEGSADPAVAEKLLRKKL | 0.0979
11 | HMKPEDIALLEEIRDLLKEKKSVIVNLEYVNKDVARRIVDFISGGVFALNGHIQKVSNSIFLVAPMN | -0.00621
12 | HMNKKAAYKDMAGYFAEMKSKDAADILSRLKDEDIIGIFNEMPRDMVAEMLQKMDRDKATTLTRKML | 0.444
13 | HMVDIQTGQKVRIHTSQFAGKIGNITALNVKSAELPNGIRTATASILMQSNENVMLPVSNFDIIE | -0.0419
14 | HMETEQVEMIRVVGMHVDEAKKALLDLGLSPEIKYEESSSYDAGTVLRASVQDGLMIDKGTNIVLTVAEA | 0.293
15 | HMDEYTREQFVADMEEGRVREVTIHPNSEVPTGYIRVELANGADMKLYVTDIVEAEELVRSYGFDPPVRDV | 0.212
16 | HMEYKYNPADYPYPLNEDIEKVYSAYREKSIGKLEAAVQNLYYTLKQARRDNILSDVKVNEMQQYFLALRN | -0.857
17 | HMPSREDFAYDSIKEAILSGELLPNQKISLSDLANKLGISIIPVNSAVGRLVAEGLVRQDPHHSPYVV | 0.481
18 | HMVLGDQTFQSASAPKVFFGGDAAYGPKNIITAVAHGHDAAVSIDRFLHGEDVSKRPGPQVNLVS | 0.287
19 | HMESIGANIRRLRKERNMSQDELARKAFTNRSNINRYESGKMVPSADTTEKIEEALGVPAGTLAQ | -0.214
20 | HMEEILLSVKADGTYWVDQKEVTLDEVGALLDKEPDRLLNIFMDEKVPVRHFINVVDIAKVKREGRFII | -0.27
21 | HMVINVNEIIRRIKELKTFKTDRQVADFLGVSKATVSNWMARNSIDFPLLINKLDGVDLTWLLTGRGTPE | -2.15
22 | HMPLTPATADAGRFVKQDRKYIRLLAKRYNFTHGDIKSEIDRVSAVLSSNGIDRVPLFLYKEYLEQYLAG | -2.04
23 | HMNQIATSTQAIITTLSFLNTSSIFKLPVGDTASRPTGVSPGTLRFNSQEDSAEIYKADDGTGSAGWTEVA | -0.296
24 | HMRPAAELGLPHAPKHFIQYLTEDDRPQVLKDVDYEGGMGVSIGRLREDSIFDWKFVGLAHNTL | 0.0714
25 | HMGNKWALLVVFILNENGSTRFNQLARQIPDISTKVLSNTLQILEADGLVKRTVFPEVPIRVEYELTATGK | -3.92
26 | HMSFNLSETKKLILEEIQKGVSSVTQIAATAGISKGMTYNHLRELKLMGYIADGDSGYVITDAGKIAS | -0.448
27 | HMRYPLPYAFARSQQLLLEETDDGRYTLWMSSHPARSAVGEVSRKYGVQTFEVLADGPLAQRISAAYAQ | -0.983
28 | HMHNLYAPTQKEVDHARRVVEAAEAAAREGLGVVSLNGKMVDGPVIDRARLVLSRAELSGIRE | -0.157
29 | HMRPEFVVALSGADLGKLHRLYELGEVLSREDDAEGVTHAVLRVPDKHEHAFHAEFPQARPM | 0.879
30 | HMDVKQSAAGVAGRIRFELNRTLTGQGHEKFTSASQAIGPRPAAELARRLFNSGSVVGVHVFANIVTVDLL | 0.136
